Measurements taken from PMC6123713, “Adenylate kinase potentiates the capsular polysaccharide by modulating Cps2D in Streptococcus pneumoniae D39” (Experimental & Molecular Medicine, 2018).
Numbering of substitutions follows the chain as printed.

Tests used:
His6-Cps2D wild-type = molecular target: T1, His6-Cps2D wild-type (Streptococcus pneumoniae type 2 (D39), UniProt Q9ZII6 1-226); test: BLI; Blitz system; His6-Cps2D protein (1 μM) immobilised on Ni-NTA sensors; GST-SpAdK 2.5-50 μM; buffer D (250 mM NaCl, 50 mM Tris-HCl, pH 7.5, 1 mM DTT) with 5 mM Mg-ATP; GST and sensor background subtracted; steady-state analysis; apparent Kd; conditions: both partners purified
T1 construct: autophosphorylating tyrosine kinase Cps2D of Streptococcus pneumoniae type 2 (D39), approximately 226 amino acids; also called Cps2D WT; pCPS03; source: recombinant, purified to homogeneity; plasmid pCPS03 (E. coli plasmid pHis-parallel 2); cloning and purification in the Supplementary Information
T1 sequence: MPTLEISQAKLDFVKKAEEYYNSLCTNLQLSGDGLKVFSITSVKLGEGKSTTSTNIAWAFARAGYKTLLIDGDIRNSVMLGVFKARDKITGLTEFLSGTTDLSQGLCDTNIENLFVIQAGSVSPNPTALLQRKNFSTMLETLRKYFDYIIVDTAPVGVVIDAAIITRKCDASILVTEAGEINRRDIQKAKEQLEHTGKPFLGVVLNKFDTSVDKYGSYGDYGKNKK

[1] = molecular target: T2, His6-Cps2D 3Y3E (Y215E/Y218E/Y221E) (Streptococcus pneumoniae type 2 (D39), UniProt Q9ZII6 1-226, Y215E | Y218E | Y221E); test: as above; conditions: both partners purified
T2 construct: tyrosine kinase Cps2D of Streptococcus pneumoniae type 2 (D39), triple phosphomimetic mutant of the C-terminal tyrosine cluster; also called pCPS04; source: recombinant, purified to homogeneity; plasmid pCPS04 (E. coli plasmid pHis-parallel 2); cloning and purification in the Supplementary Information
T2 sequence: T1 sequence with Y215E, Y218E, Y221E

B1: GST-SpAdK (Streptococcus pneumoniae adenylate kinase, GST-tagged) (enzyme)
chain: MNLLIMGLPGAGKGTQAAKIVEQFHVAHISTGDMFRAAMANQTEMGVLAKSYIDKGELVPDEVTNGIVKERLSQDDIKETGFLLDGYPRTIEQAHALDKTLAELGIELEGIINIEVNPDSLLERLSGRIIHRVTGETFHKVFNPPVDYKEEDYYQREDDKPETVKRRLDVNIAQGEPIIAHYRAKGLVHDIEGNQDINDVFSDIEKVLTNLK
notes: adenylate kinase of Streptococcus pneumoniae (SpAdK); also called glutathione S-transferase (GST)-SpAdK; pGST-ADK; source: recombinant, purified; plasmid pGST-ADK (E. coli plasmid pGST-parallel 2); cloning and purification in the Supplementary Information
Kd (His6-Cps2D wild-type): 31 ± 5 µM
Kd [1]: 40 ± 17 µM
